{"source": "patent US20100272817A1", "molecular_target": "cholesterol ester hydrolase (CEH)", "note": "Square brackets hold non-standard residues; d marks the D form. Ends that are not written are not given here.", "data": [{"binder": "[dR][dF][dH][dN][dP][dD][dK]G[dS][dR]G[dW][dE][dN][dA][dA][dQ][dD][dA] (also: retro-inverso peptide)", "note": "[retro-inversal D amino acid peptide … (D-form; SEQ ID NO:3)]", "values": [{"measurement": "in vivo macrophage cholesterol export ([3H]-cholesterol in plasma 5 hours after peptide injection)", "result": 2.5, "unit": "fold"}]}]}
